For one assay, the target named is human FcRn (human, UniProt P55899 24-297; P61769 21-119). As to the kind of experiment: FcRn binding at pH 6.0, reference IgG1 isotype control trastuzumab (method not stated in the paragraph).
The target in the next assay is cynomolgus monkey FcRn (cynomolgus monkey, UniProt Q8SPV9 24-297; Q8SPW0 21-119). The description is as above.
The target of assay [1] is T1, recombinant human CD16a V158 allele (human, UniProt P08637 17-208, site-specific biotinylation (site not stated)).
T1 construct: also called FcγRIIIA V158
T1 sequence (P08637 17-208 F176V limits assumed): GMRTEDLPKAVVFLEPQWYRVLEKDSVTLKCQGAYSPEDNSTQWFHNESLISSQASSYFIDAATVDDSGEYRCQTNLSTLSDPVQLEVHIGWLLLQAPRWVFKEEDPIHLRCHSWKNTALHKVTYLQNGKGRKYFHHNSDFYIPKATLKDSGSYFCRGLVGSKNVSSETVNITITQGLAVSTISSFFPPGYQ
As to the kind of experiment: SPR (Biacore 8K), receptor captured on the chip via site-specific biotinylation; qualitative assessment. In general terms: SPR reads the build-up and loss of mass on a sensor chip optically.

Assay [2] concerns the target T2, recombinant human CD16a F158 allele (human, UniProt P08637 17-208, site-specific biotinylation (site not stated)).
T2 construct: also called FcγRIIIA F158
Described as above.

Another assay concerns the target T3, recombinant human CD32b (human, UniProt P31994 46-217, limits assumed, site-specific biotinylation (site not stated)).
T3 construct: also called FcγRIIB
T3 sequence (looked up): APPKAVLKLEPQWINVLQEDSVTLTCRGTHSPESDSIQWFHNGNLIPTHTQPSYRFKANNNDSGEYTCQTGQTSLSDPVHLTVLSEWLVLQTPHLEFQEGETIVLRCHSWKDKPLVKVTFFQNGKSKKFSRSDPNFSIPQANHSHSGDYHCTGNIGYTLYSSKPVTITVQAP
The assay is described as above.

A further assay deals with T4, recombinant human CD16b (human, UniProt O75015 17-200, site-specific biotinylation (site not stated)).
T4 construct: also called FcγRIIIB
T4 sequence (O75015 17-200 limits assumed): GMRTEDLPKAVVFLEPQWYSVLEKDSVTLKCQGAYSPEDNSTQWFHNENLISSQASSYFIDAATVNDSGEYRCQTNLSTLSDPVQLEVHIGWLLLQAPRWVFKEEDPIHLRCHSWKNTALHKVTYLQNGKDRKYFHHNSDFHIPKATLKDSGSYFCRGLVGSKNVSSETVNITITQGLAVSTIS
The description is as above.

Assay [3] deals with recombinant cynomolgus CD16 (cynomolgus, UniProt Q8SPW2 17-208, site-specific biotinylation (site not stated)). The description is as above.
recombinant cynomolgus CD16, sequence (Q8SPW2 17-208 limits assumed): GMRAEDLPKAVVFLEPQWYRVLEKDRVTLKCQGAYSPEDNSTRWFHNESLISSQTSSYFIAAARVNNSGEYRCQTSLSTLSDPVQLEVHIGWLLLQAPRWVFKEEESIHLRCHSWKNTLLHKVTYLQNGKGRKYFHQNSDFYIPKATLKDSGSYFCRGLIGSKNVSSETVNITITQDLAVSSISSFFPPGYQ
The next assay addresses T5, recombinant human CD64 (human, UniProt P12314 16-288, limits assumed, site-specific biotinylation (site not stated)).
T5 construct: also called FcγRI
The description is as above.

Assay [4] addresses T6, recombinant human CD32a H131 allele (human, UniProt P12318 36-218, limits assumed, site-specific biotinylation (site not stated)).
T6 construct: also called FcγRIIA H131
T6 sequence (looked up): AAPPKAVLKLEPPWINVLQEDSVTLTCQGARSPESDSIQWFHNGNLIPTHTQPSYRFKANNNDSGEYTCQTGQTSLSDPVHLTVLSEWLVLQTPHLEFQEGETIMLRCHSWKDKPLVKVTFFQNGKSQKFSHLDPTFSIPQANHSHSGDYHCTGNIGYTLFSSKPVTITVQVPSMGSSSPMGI
The description is as above.

The target in assay [5] is T7, recombinant human CD32a R131 allele (human, UniProt P12318 36-218, limits assumed, site-specific biotinylation (site not stated)).
T7 construct: also called FcγRIIA R131
T7 sequence (looked up): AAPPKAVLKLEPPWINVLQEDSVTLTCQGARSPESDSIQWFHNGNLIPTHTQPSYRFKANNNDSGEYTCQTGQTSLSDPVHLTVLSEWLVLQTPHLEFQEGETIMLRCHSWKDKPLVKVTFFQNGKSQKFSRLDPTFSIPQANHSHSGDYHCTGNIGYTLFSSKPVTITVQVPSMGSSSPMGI
The assay is described as above.

T2 sequence (P08637 17-208 limits assumed): as the sequence (P08637 17-208 F176V limits assumed) above, with V160F counted along it
cynomolgus monkey FcRn, sequence (Q8SPV9 24-297 limits assumed, chain 1 of 2): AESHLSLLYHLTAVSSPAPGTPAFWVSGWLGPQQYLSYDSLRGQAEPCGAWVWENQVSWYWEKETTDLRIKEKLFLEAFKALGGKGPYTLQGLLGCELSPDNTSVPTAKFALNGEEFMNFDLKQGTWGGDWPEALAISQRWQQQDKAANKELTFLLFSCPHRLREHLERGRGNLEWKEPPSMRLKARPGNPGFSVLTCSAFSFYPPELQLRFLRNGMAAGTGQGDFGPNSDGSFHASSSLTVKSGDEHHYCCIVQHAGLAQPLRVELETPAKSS
cynomolgus monkey FcRn, sequence (Q8SPW0 21-119 limits assumed, chain 2 of 2): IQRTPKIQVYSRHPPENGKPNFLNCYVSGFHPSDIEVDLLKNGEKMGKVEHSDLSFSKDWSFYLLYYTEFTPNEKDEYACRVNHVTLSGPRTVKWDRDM
human FcRn, sequence (P55899 24-297 limits assumed, form in doubt, chain 1 of 2): as the sequence (Q8SPV9 24-297 limits assumed, chain 1 of 2) above, with D39N, Q44E, S99G, G189S, N190S, M217L, T269S counted along it
human FcRn, sequence (P61769 21-119 limits assumed, form in doubt, chain 2 of 2): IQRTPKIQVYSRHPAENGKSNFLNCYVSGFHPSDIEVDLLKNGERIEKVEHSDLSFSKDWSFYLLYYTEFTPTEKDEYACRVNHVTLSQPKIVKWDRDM
T5 sequence (P12314 16-288 limits assumed): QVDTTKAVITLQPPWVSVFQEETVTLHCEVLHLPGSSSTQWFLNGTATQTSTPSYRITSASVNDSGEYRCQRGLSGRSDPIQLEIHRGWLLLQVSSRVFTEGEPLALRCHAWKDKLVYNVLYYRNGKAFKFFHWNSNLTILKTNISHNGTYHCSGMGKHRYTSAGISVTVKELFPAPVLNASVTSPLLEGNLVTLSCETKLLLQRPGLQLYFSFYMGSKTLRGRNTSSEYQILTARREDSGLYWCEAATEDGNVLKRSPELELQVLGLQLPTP

B1: DF-hIL-12-Fc si (Fc fusion)
chain 1: IWELKKDVYVVELDWYPDAPGEMVVLTCDTPEEDGITWTLDQSSEVLGSGKTLTIQVKEFGDAGQYTCHKGGEVLSHSLLLLHKKEDGIWSTDILKDQKEPKNKTFLRCEAKNYSGRFTCWWLTTISTDLTFSVKSSRGSSDPQGVTCGAATLSAERVRGDNKEYEYSVECQEDSACPAAEESLPIEVMVDAVHKLKYENYTSSFFIRDIIKPDPPKNLQLKPLKNSRQVEVSWEYPDTWSTPHSYFSLTFCVQVQGKSKREKKDRVFTDKTSATVICRKNASISVRAQDRYYSSSWSEWASVPCSPKSSDKTHTCPPCPAPEAAGGPSVFLFPPKPKDTLMISRTPEVTCVVVDVSHEDPEVKFNWYVDGVEVHNAKTKPREEQYNSTYRVVSVLTVLHQDWLNGKEYKCKVSNKALAAPIEKTISKAKGQPREPQVCTLPPSRDELTENQVSLTCLVKGFYPSDIAVEWESNGQPENNYKTTPPVLDSDGSFFLYSWLTVDKSRWQQGNVFSCSVMHEALHNHYTQKSLSLSPG
chain 2: RNLPVATPDPGMFPCLHHSQNLLRAVSNMLQKARQTLEFYPCTSEEIDHEDITKDKTSTVEACLPLELTKNESCLNSRETSFITNGSCLASRKTSFMMALCLSSIYEDLKMYQVEFKTMNAKLLMDPKRQIFLDQNMLAVIDELMQALNFNSETVPQKSSLEEPDFYKTKIKLCILLHAFRIRAVTIDRVMSYLNASGGGGSGGGGSGGGGSEPKSSDKTHTCPPCPAPEAAGGPSVFLFPPKPKDTLMISRTPEVTCVVVDVSHEDPEVKFNWYVDGVEVHNAKTKPREEQYNSTYRVVSVLTVLHQDWLNGKEYKCKVSNKALAAPIEKTISKAKGQPREPRVYTLPPCRDELTKNQVSLTCLVKGFYPSDIAVEWESNGQPENNYKTTPPVLVSDGSFTLYSKLTVDKSRWQQGNVFSCSVMHEALHNHYTQKSLSLSPG
notes: also called DF IL-12-Fc; hIL-12-Fc-LALAPA
For B1, the “fold difference in binding affinity value against trastuzumab” value with human FcRn and with cynomolgus monkey FcRn was below 1.5 fold throughout. Further, the binding result (in [1]; in assay [2]; with recombinant human CD32b; with recombinant human CD16b; in assay [3]; with recombinant human CD64) was “no binding” throughout. Further, the binding result in [4] and in assay [5] was “no binding” each time.

(Values after patent US20230272041A1 (DRAGONFLY THERAPEUTICS, published 2023).)
